Data taken from publication PMC4210868.

Biological target: DDAGNRQP-fused pVIII protein (phage fd (fd-tet)) (UniProt P69539)
Assay: tricine-SDS-PAGE

stoichiometry N: 2
Substance: DDAGNRQP-fused pVIII protein (from UniProt P69539 24-73)
